Data set [1] has as its system HeLa Kyoto. In words: melting temperature (median over replicates), in situ; higher = more thermally stable.
In data set [2] the test system is HeLa Kyoto. Nature of the data set: solubility change mitosis vs G1/S (difference of NP-40 vs SDS log2 ratios) (log2 ratio difference); higher = more soluble in mitosis.
In data set [3] the test system is HeLa Kyoto. Nature of the data set: thermal stability score vs G1/S (z-score of summed log2 fold changes over temperatures); higher = more thermally stable than in G1/S.
For data set [4], the system named is HeLa Kyoto. In words: solubility in G1/S (NP-40 vs SDS abundance) (log2 ratio); higher = more soluble. Conditions: cell cycle stage: G1/S.
Setting [5] is: cell cycle stage: early G1 (4.5 h after nocodazole release).
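Throughout, for melting temperature (median over replicates), in situ: HeLa Kyoto cells synchronized by double thymidine or nocodazole block, proteins quantified by TMT10plex mass spectrometry, three independent biological replicates.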
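Throughout, for solubility change mitosis vs G1/S (difference of NP-40 vs SDS log2 ratios): synchronized HeLa Kyoto cells (double thymidine block for G1/S, nocodazole release for mitosis), protein amounts in NP-40 versus SDS lysates quantified by mass spectrometry, three biological replicates.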
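Throughout, for solubility in G1/S (NP-40 vs SDS abundance): HeLa Kyoto cells arrested at G1/S by double thymidine block, proteins quantified by TMT10plex mass spectrometry in mild NP-40 versus SDS extracts, three biological replicates.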
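Throughout, for thermal stability score vs G1/S (z-score of summed log2 fold changes over temperatures): synchronized HeLa Kyoto cells, proteins quantified by TMT10plex mass spectrometry, three biological replicates, mitosis taken 0.5 h after nocodazole release, G1/S directly after double thymidine block.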

On to “MNIRNARPEDLMNMQHCNLLCLPENYQMKYYFYHGLSWPQLSYIAEDENGKIVGYVLAKMEEDPDDVPHGHITSLAVKRSHRRLGLAQKLMDQASRAMIENFNAKYVSLHVRKSNRAALHLYSNTLNFQISEVEPKYYADGEDAYAMKRDLTQMADELRRHLELKEKGRHVVLGAIENKVESKGNSPPSSGEACREEKGLAAEDSGGDSKDLSEVSETTESTDVKDSSEASDSAS [NAA10]”, for which the figures for the melting temperature in the data set on HeLa Kyoto [1] (cell cycle stage: G1/S) and in the data set with HeLa Kyoto [1] (cell cycle stage: mitosis) were 53.4 °C and 53.1 °C, respectively. Also, in the data set on HeLa Kyoto [2], the “solubility change mitosis (log2)” value was -0.0427. The values for the thermal stability score in the data set with HeLa Kyoto [3] (setting [5]) and with HeLa Kyoto [3] (cell cycle stage: mitosis) were -0.13 and -1.02, respectively. The “solubility in G1/S (log2)” value in the data set on HeLa Kyoto [4] is 0.263.

In the case of “MNIVVEFFVVTFKVLWAFVLAAARWLVRPKEKSVAGQVCLITGAGSGLGRLFALEFARRRALLVLWDINTQSNEETAGMVRHIYRDLEAADAAALQAGNGEEEILPHCNLQVFTYTCDVGKRENVYLTAERVRKEVGEVSVLVNNAGVVSGHHLLECPDELIERTMMVNCHAHFWTTKAFLPTMLEINHGHIVTVASSLGLFSTAGVEDYCASKFGVVGFHESLSHELKAAEKDGIKTTLVCPYLVDTGMFRGCRIRKEIEPFLPPLKPDYCVKQAMKAILTDQPMICTPRLMYIVTFMKSILPFEAVVCMYRFLGADKCMYPFIAQRKQATNNNEAKNGI [RDH10]”, the melting temperature is 53.4 °C with HeLa Kyoto [1] (cell cycle stage: G1/S) and 52.9 °C in the data set with HeLa Kyoto [1] (cell cycle stage: mitosis). For the same sequence, in the data set with HeLa Kyoto [2], the “solubility change mitosis (log2)” value was -0.104. Besides, the results for the thermal stability score in the data set with HeLa Kyoto [3] (setting [5]) and in the data set on HeLa Kyoto [3] (cell cycle stage: mitosis) were -3.18 and -3.77, respectively. Moreover, the “solubility in G1/S (log2)” value with HeLa Kyoto [4] was -0.308.

Regarding “MNKKKKPFLGMPAPLGYVPGLGRGATGFTTRSDIGPARDANDPVDDRHAPPGKRTVGDQMKKNQAADDDDEDLNDTNYDEFNGYAGSLFSSGPYEKDDEEADAIYAALDKRMDERRKERREQREKEEIEKYRMERPKIQQQFSDLKRKLAEVTEEEWLSIPEVGDARNKRQRNPRYEKLTPVPDSFFAKHLQTGENHTSVDPRQTQFGGLNTPYPGGLNTPYPGGMTPGLMTPGTGELDMRKIGQARNTLMDMRLSQVSDSVSGQTVVDPKGYLTDLNSMIPTHGGDINDIKKARLLLKSVRETNPHHPPAWIASARLEEVTGKLQVARNLIMKGTEMCPKSEDVWLEAARLQPGDTAKAVVAQAVRHLPQSVRIYIRAAELETDIRAKKRVLRKALEHVPNSVRLWKAAVELEEPEDARIMLSRAVECCPTSVELWLALARLETYENARKVLNKARENIPTDRHIWITAAKLEEANGNTQMVEKIIDRAITSLRANGVEINREQWIQDAEECDRAGSVATCQAVMRAVIGIGIEEEDRKHTWMEDADSCVAHNALECARAIYAYALQVFPSKKSVWLRAAYFEKNHGTRESLEALLQRAVAHCPKAEVLWLMGAKSKWLAGDVPAARSILALAFQANPNSEEIWLAAVKLESENDEYERARRLLAKARSSAPTARVFMKSVKLEWVQDNIRAAQDLCEEALRHYEDFPKLWMMKGQIEEQKEMMEKAREAYNQGLKKCPHSTPLWLLLSRLEEKIGQLTRARAILEKSRLKNPKNPGLWLESVRLEYRAGLKNIANTLMAKALQECPNSGILWSEAIFLEARPQRRTKSVDALKKCEHDPHVLLAVAKLFWSQRKITKAREWFHRTVKIDSDLGDAWAFFYKFELQHGTEEQQEEVRKRCESAEPRHGELWCAVSKDIANWQKKIGDILRLVAGRIKNTF [PRPF6]”, the melting temperature in the data set on HeLa Kyoto [1] (cell cycle stage: G1/S) came to 46.8 °C; in the data set on HeLa Kyoto [1] (cell cycle stage: mitosis) it was 48.1 °C. Besides, the “solubility change mitosis (log2)” value in the data set on HeLa Kyoto [2] worked out at 0.428. The thermal stability score with HeLa Kyoto [3] (setting [5]) came to 1.08; with HeLa Kyoto [3] (cell cycle stage: mitosis) it was 5.32. Moreover, the “solubility in G1/S (log2)” value in the data set on HeLa Kyoto [4] was -0.849.

For “MNLASQSGEAGAGQLLFANFNQDNTEVKGASRAAGLGRRAVVWSLAVGSKSGYKFFSLSSVDKLEQIYECTDTEDVCIVERLFSSSLVAIVSLKAPRKLKVCHFKKGTEICNYSYSNTILAVKLNRQRLIVCLEESLYIHNIRDMKVLHTIRETPPNPAGLCALSINNDNCYLAYPGSATIGEVQVFDTINLRAANMIPAHDSPLAALAFDASGTKLATASEKGTVIRVFSIPEGQKLFEFRRGVKRCVSICSLAFSMDGMFLSASSNTETVHIFKLETVKEKPPEEPTTWTGYFGKVLMASTSYLPSQVTEMFNQGRAFATVRLPFCGHKNICSLATIQKIPRLLVGAADGYLYMYNLDPQEGGECALMKQHRLDGSLETTNEILDSASHDCPLVTQTYGAAAGKGTYVPSSPTRLAYTDDLGAVGGACLEDEASALRLDEDSEHPPMILRTD [WIPI2]”, the melting temperature in the data set with HeLa Kyoto [1] (cell cycle stage: G1/S) worked out at 50.4 °C; with HeLa Kyoto [1] (cell cycle stage: mitosis), 51.1 °C. The “solubility change mitosis (log2)” value in the data set with HeLa Kyoto [2] is -0.0675. Besides, the thermal stability score in the data set on HeLa Kyoto [3] (setting [5]) was -0.953; in the data set with HeLa Kyoto [3] (cell cycle stage: mitosis), -0.659. Besides, in the data set with HeLa Kyoto [4], the “solubility in G1/S (log2)” value was determined as 0.0209.

As to “MNPAAEAEFNILLATDSYKVTHYKQYPPNTSKVYSYFECREKKTENSKLRKVKYEETVFYGLQYILNKYLKGKVVTKEKIQEAKDVYKEHFQDDVFNEKGWNYILEKYDGHLPIEIKAVPEGFVIPRGNVLFTVENTDPECYWLTNWIETILVQSWYPITVATNSREQKKILAKYLLETSGNLDGLEYKLHDFGYRGVSSQETAGIGASAHLVNFKGTDTVAGLALIKKYYGTKDPVPGYSVPAAEHSTITAWGKDHEKDAFEHIVTQFSSVPVSVVSDSYDIYNACEKIWGEDLRHLIVSRSTQAPLIIRPDSGNPLDTVLKVLEILGKKFPVTENSKGYKLLPPYLRVIQGDGVDINTLQEIVEGMKQKMWSIENIAFGSGGGLLQKLTRDLLNCSFKCSYVVTNGLGINVFKDPVADPNKRSKKGRLSLHRTPAGNFVTLEEGKGDLEEYGQDLLHTVFKNGKVTKSYSFDEIRKNAQLNIELEAAHH [NAMPT]”, the results for the melting temperature with HeLa Kyoto [1] (cell cycle stage: G1/S) and in the data set on HeLa Kyoto [1] (cell cycle stage: mitosis) were 56.9 °C and 55.9 °C, respectively. Also, the “solubility change mitosis (log2)” value with HeLa Kyoto [2] was -0.0826. Besides, the thermal stability score in the data set on HeLa Kyoto [3] (setting [5]) is -1.65; in the data set on HeLa Kyoto [3] (cell cycle stage: mitosis) it was -1.17. Further, in the data set on HeLa Kyoto [4], the “solubility in G1/S (log2)” value worked out at 0.264.

(Values after the supplement of paper PMC5998384.)
